Source: publication PMC7367873, “Dissecting the sequence determinants for dephosphorylation by the catalytic subunits of phosphatases PP1 and PP2A” (Nature Communications, 2020)
Values belong to the molecule of their own block, whether it stands above or below them.

Tests used:
[1] = tested on: GFP-14-3-3β and its binding proteins; assay: GFP-14-3-3β co-IP with LC-MS/MS label-free quantification, untreated versus PP1c-treated; parameters: species or system human; settings: log2 difference; pairwise comparison PP1 vs untreated, label-free quantification, 3 replicates each
[2] = tested on: GFP-14-3-3β; assay: GFP-14-3-3β co-IP with LC-MS/MS, untreated GFP-14-3-3β versus GFP control (14-3-3 interactome); format: binding, human; settings: log2 difference; pairwise comparison untreated vs GFP, label-free quantification, 3 replicates each

Difference (log2), PP1 vs untreated [1]: 1.371
B1: DHX30 (protein, UniProt Q7L2E3 1-1194, looked up)
ATP-dependent RNA helicase …: MFSLDSFRKDRAQHRQRQCKLPPPRLPPMCVNPTPGGTISRASRDLLKEFPQPKNLLNSVIGRALGISHAKDKLVYVHTNGPKKKKVTLHIKWPKSVEVEGYGSKKIDAERQAAAAACQLFKGWGLLGPRNELFDAAKYRVLADRFGSPADSWWRPEPTMPPTSWRQLNPESIRPGGPGGLSRSLGREEEEDEEEELEEGTIDVTDFLSMTQQDSHAPLRDSRGSSFEMTDDDSAIRALTQFPLPKNLLAKVIQIATSSSTAKNLMQFHTVGTKTKLSTLTLLWPCPMTFVAKGRRKAEAENKAAALACKKLKSLGLVDRNNEPLTHAMYNLASLRELGETQRRPCTIQVPEPILRKIETFLNHYPVESSWIAPELRLQSDDILPLGKDSGPLSDPITGKPYVPLLEAEEVRLSQSLLELWRRRGPVWQEAPQLPVDPHRDTILNAIEQHPVVVISGDTGCGKTTRIPQLLLERYVTEGRGARCNVIITQPRRISAVSVAQRVSHELGPSLRRNVGFQVRLESKPPSRGGALLFCTVGILLRKLQSNPSLEGVSHVIVDEVHERDVNTDFLLILLKGLQRLNPALRLVLMSATGDNERFSRYFGGCPVIKVPGFMYPVKEHYLEDILAKLGKHQYLHRHRHHESEDECALDLDLVTDLVLHIDARGEPGGILCFLPGWQEIKGVQQRLQEALGMHESKYLILPVHSNIPMMDQKAIFQQPPVGVRKIVLATNIAETSITINDIVHVVDSGLHKEERYDLKTKVSCLETVWVSRANVIQRRGRAGRCQSGFAYHLFPRSRLEKMVPFQVPEILRTPLENLVLQAKIHMPEKTAVEFLSKAVDSPNIKAVDEAVILLQEIGVLDQREYLTTLGQRLAHISTDPRLAKAIVLAAIFRCLHPLLVVVSCLTRDPFSSSLQNRAEVDKVKALLSHDSGSDHLAFVRAVAGWEEVLRWQDRSSRENYLEENLLYAPSLRFIHGLIKQFSENIYEAFLVGKPSDCTLASAQCNEYSEEEELVKGVLMAGLYPNLIQVRQGKVTRQGKFKPNSVTYRTKSGNILLHKSTINREATRLRSRWLTYFMAVKSNGSVFVRDSSQVHPLAVLLLTDGDVHIRDDGRRATISLSDSDLLRLEGDSRTVRLLKELRRALGRMVERSLRSELAALPPSVQEEHGQLLALLAELLRGPCGSFDVRKTADD
Difference (log2), untreated vs GFP [2]: 0.9044

Difference (log2), PP1 vs untreated [1]: 1.312
B2: MAP7 (protein, UniProt Q14244 2-749, looked up)
Ensconsin: AELGAGGDGHRGGDGAVRSETAPDSYKVQDKKNASSRPASAISGQNNNHSGNKPDPPPVLRVDDRQRLARERREEREKQLAAREIVWLEREERARQHYEKHLEERKKRLEEQRQKEERRRAAVEEKRRQRLEEDKERHEAVVRRTMERSQKPKQKHNRWSWGGSLHGSPSIHSADPDRRSVSTMNLSKYVDPVISKRLSSSSATLLNSPDRARRLQLSPWESSVVNRLLTPTHSFLARSKSTAALSGEAASCSPIIMPYKAAHSRNSMDRPKLFVTPPEGSSRRRIIHGTASYKKERERENVLFLTSGTRRAVSPSNPKARQPARSRLWLPSKSLPHLPGTPRPTSSLPPGSVKAAPAQVRPPSPGNIRPVKREVKVEPEKKDPEKEPQKVANEPSLKGRAPLVKVEEATVEERTPAEPEVGPAAPAMAPAPASAPAPASAPAPAPVPTPAMVSAPSSTVNASASVKTSAGTTDPEEATRLLAEKRRLAREQREKEERERREQEELERQKREELAQRVAEERTTRREEESRRLEAEQAREKEEQLQRQAEERALREREEAERAQRQKEEEARVREEAERVRQEREKHFQREEQERLERKKRLEEIMKRTRRTEATDKKTSDQRNGDIAKGALTGGTEVSALPCTTNAPGNGKPVGSPHVVTSHQSKVTVESTPDLEKQPNENGVSVQNENFEEIINLPIGSKPSRLDVTNSESPEIPLNPILAFDDEGTLGPLPQVDGVQTQQTAEVI
Difference (log2), untreated vs GFP [2]: -0.1668

Difference (log2), PP1 vs untreated [1]: 1.303
B3: SLC43A3 (protein, UniProt Q8NBI5 1-491, looked up)
Equilibrative nucleobase …: MAGQGLPLHVATLLTGLLECLGFAGVLFGWPSLVFVFKNEDYFKDLCGPDAGPIGNATGQADCKAQDERFSLIFTLGSFMNNFMTFPTGYIFDRFKTTVARLIAIFFYTTATLIIAFTSAGSAVLLFLAMPMLTIGGILFLITNLQIGNLFGQHRSTIITLYNGAFDSSSAVFLIIKLLYEKGISLRASFIFISVCSTWHVARTFLLMPRGHIPYPLPPNYSYGLCPGNGTTKEEKETAEHENRELQSKEFLSAKEETPGAGQKQELRSFWSYAFSRRFAWHLVWLSVIQLWHYLFIGTLNSLLTNMAGGDMARVSTYTNAFAFTQFGVLCAPWNGLLMDRLKQKYQKEARKTGSSTLAVALCSTVPSLALTSLLCLGFALCASVPILPLQYLTFILQVISRSFLYGSNAAFLTLAFPSEHFGKLFGLVMALSAVVSLLQFPIFTLIKGSLQNDPFYVNVMFMLAILLTFFHPFLVYRECRTWKESPSAIA
Difference (log2), untreated vs GFP [2]: -0.216

Difference (log2), PP1 vs untreated [1]: 1.323
B4: CAPRIN1 (protein, UniProt Q14444 2-709, looked up)
Caprin-1: PSATSHSGSGSKSSGPPPPSGSSGSEAAAGAGAAAPASQHPATGTGAVQTEAMKQILGVIDKKLRNLEKKKGKLDDYQERMNKGERLNQDQLDAVSKYQEVTNNLEFAKELQRSFMALSQDIQKTIKKTARREQLMREEAEQKRLKTVLELQYVLDKLGDDEVRTDLKQGLNGVPILSEEELSLLDEFYKLVDPERDMSLRLNEQYEHASIHLWDLLEGKEKPVCGTTYKVLKEIVERVFQSNYFDSTHNHQNGLCEEEEAASAPAVEDQVPEAEPEPAEEYTEQSEVESTEYVNRQFMAETQFTSGEKEQVDEWTVETVEVVNSLQQQPQAASPSVPEPHSLTPVAQADPLVRRQRVQDLMAQMQGPYNFIQDSMLDFENQTLDPAIVSAQPMNPTQNMDMPQLVCPPVHSESRLAQPNQVPVQPEATQVPLVSSTSEGYTASQPLYQPSHATEQRPQKEPIDQIQATISLNTDQTTASSSLPAASQPQVFQAGTSKPLHSSGINVNAAPFQSMQTVFNMNAPVPPVNEPETLKQQNQYQASYNQSFSSQPHQVEQTELQQEQLQTVVGTYHGSPDQSHQVTGNHQQPPQQNTGFPRSNQPYYNSRGVSRGGSRGARGLMNGYRGPANGFRGGYDGYRPSFSNTPNSGYTQSQFSAPRDYSGYQRDGYQQNFKRGSGQSGPRGAPRGRGGPPRPNRGMPQMNTQQVN
Difference (log2), untreated vs GFP [2]: -0.3406

Difference (log2), PP1 vs untreated [1]: 1.349
B5: RFC1 (protein, UniProt P35251 1-1148, looked up)
Replication factor C subunit 1: MDIRKFFGVIPSGKKLVSETVKKNEKTKSDEETLKAKKGIKEIKVNSSRKEDDFKQKQPSKKKRIIYDSDSESEETLQVKNAKKPPEKLPVSSKPGKISRQDPVTYISETDEEDDFMCKKAASKSKENGRSTNSHLGTSNMKKNEENTKTKNKPLSPIKLTPTSVLDYFGTGSVQRSNKKMVASKRKELSQNTDESGLNDEAIAKQLQLDEDAELERQLHEDEEFARTLAMLDEEPKTKKARKDTEAGETFSSVQANLSKAEKHKYPHKVKTAQVSDERKSYSPRKQSKYESSKESQQHSKSSADKIGEVSSPKASSKLAIMKRKEESSYKEIEPVASKRKENAIKLKGETKTPKKTKSSPAKKESVSPEDSEKKRTNYQAYRSYLNREGPKALGSKEIPKGAENCLEGLIFVITGVLESIERDEAKSLIERYGGKVTGNVSKKTNYLVMGRDSGQSKSDKAAALGTKIIDEDGLLNLIRTMPGKKSKYEIAVETEMKKESKLERTPQKNVQGKRKISPSKKESESKKSRPTSKRDSLAKTIKKETDVFWKSLDFKEQVAEETSGDSKARNLADDSSENKVENLLWVDKYKPTSLKTIIGQQGDQSCANKLLRWLRNWQKSSSEDKKHAAKFGKFSGKDDGSSFKAALLSGPPGVGKTTTASLVCQELGYSYVELNASDTRSKSSLKAIVAESLNNTSIKGFYSNGAASSVSTKHALIMDEVDGMAGNEDRGGIQELIGLIKHTKIPIICMCNDRNHPKIRSLVHYCFDLRFQRPRVEQIKGAMMSIAFKEGLKIPPPAMNEIILGANQDIRQVLHNLSMWCARSKALTYDQAKADSHRAKKDIKMGPFDVARKVFAAGEETAHMSLVDKSDLFFHDYSIAPLFVQENYIHVKPVAAGGDMKKHLMLLSRAADSICDGDLVDSQIRSKQNWSLLPAQAIYASVLPGELMRGYMTQFPTFPSWLGKHSSTGKHDRIVQDLALHMSLRTYSSKRTVNMDYLSLLRDALVQPLTSQGVDGVQDVVALMDTYYLMKEDFENIMEISSWGGKPSPFSKLDPKVKAAFTRAYNKEAHLTPYSLQAIKASRHSTSPSLDSEYNEELNEDDSQSDEKDQDAIETDAMIKKKTKSSKPSKPEKDKEPRKGKGKSSKK
Difference (log2), untreated vs GFP [2]: 0.4473

Difference (log2), PP1 vs untreated [1]: 1.3164
B6: P4HA1 (protein, UniProt P13674 18-534, looked up)
Prolyl 4-hydroxylase subunit …: HPGFFTSIGQMTDLIHTEKDLVTSLKDYIKAEEDKLEQIKKWAEKLDRLTSTATKDPEGFVGHPVNAFKLMKRLNTEWSELENLVLKDMSDGFISNLTIQRQYFPNDEDQVGAAKALLRLQDTYNLDTDTISKGNLPGVKHKSFLTAEDCFELGKVAYTEADYYHTELWMEQALRQLDEGEISTIDKVSVLDYLSYAVYQQGDLDKALLLTKKLLELDPEHQRANGNLKYFEYIMAKEKDVNKSASDDQSDQKTTPKKKGVAVDYLPERQKYEMLCRGEGIKMTPRRQKKLFCRYHDGNRNPKFILAPAKQEDEWDKPRIIRFHDIISDAEIEIVKDLAKPRLRRATISNPITGDLETVHYRISKSAWLSGYENPVVSRINMRIQDLTGLDVSTAEELQVANYGVGGQYEPHFDFARKDEPDAFKELGTGNRIATWLFYMSDVSAGGATVFPEVGASVWPKKGTAVFWYNLFASGEGDYSTRHAACPVLVGNKWVSNKWLHERGQEFRRPCTLSELE
Difference (log2), untreated vs GFP [2]: -0.8349

Difference (log2), PP1 vs untreated [1]: 1.284
B7: STT3B (protein, UniProt Q8TCJ2 2-826, looked up)
Dolichyl-diphosphooligosacchar …: AEPSAPESKHKSSLNSSPWSGLMALGNSRHGHHGPGAQCAHKAAGGAAPPKPAPAGLSGGLSQPAGWQSLLSFTILFLAWLAGFSSRLFAVIRFESIIHEFDPWFNYRSTHHLASHGFYEFLNWFDERAWYPLGRIVGGTVYPGLMITAGLIHWILNTLNITVHIRDVCVFLAPTFSGLTSISTFLLTRELWNQGAGLLAACFIAIVPGYISRSVAGSFDNEGIAIFALQFTYYLWVKSVKTGSVFWTMCCCLSYFYMVSAWGGYVFIINLIPLHVFVLLLMQRYSKRVYIAYSTFYIVGLILSMQIPFVGFQPIRTSEHMAAAGVFALLQAYAFLQYLRDRLTKQEFQTLFFLGVSLAAGAVFLSVIYLTYTGYIAPWSGRFYSLWDTGYAKIHIPIIASVSEHQPTTWVSFFFDLHILVCTFPAGLWFCIKNINDERVFVALYAISAVYFAGVMVRLMLTLTPVVCMLSAIAFSNVFEHYLGDDMKRENPPVEDSSDEDDKRNQGNLYDKAGKVRKHATEQEKTEEGLGPNIKSIVTMLMLMLLMMFAVHCTWVTSNAYSSPSVVLASYNHDGTRNILDDFREAYFWLRQNTDEHARVMSWWDYGYQIAGMANRTTLVDNNTWNNSHIALVGKAMSSNETAAYKIMRTLDVDYVLVIFGGVIGYSGDDINKFLWMVRIAEGEHPKDIRESDYFTPQGEFRVDKAGSPTLLNCLMYKMSYYRFGEMQLDFRTPPGFDRTRNAEIGNKDIKFKHLEEAFTSEHWLVRIYKVKAPDNRETLDHKPRVTNIFPKQKYLSKKTTKRKRGYIKNKLVFKKGKKISKKTV
Difference (log2), untreated vs GFP [2]: -0.7683
